Results published in publication PMC3260246 (PLoS ONE, 2012).
Residue numbers refer to the chain shown, from its start. Numbers in names are those of the source.

B1: αA-crystallin R12A mutant (natural protein, human, UniProt P02489 1-173, looked up)
chain: MDVTIQHPWFKATLGPFYPSRLFDQFFGEGLFEYDLLPFLSSTISPYYRQSLFRTVLDSGISEVRSDRDKFVIFLDVKHFSPEDLTVKVQDDFVEIHGKHNERQDDHGYISREFHRRYRLPSNVDQSALSCSLSADGMLTFCGPKIQTGLDATHAERAIPVSREEKPTSAPSS
B2: wild-type human αB-crystallin (natural protein, UniProt P02511 1-175, looked up)
chain: MDIAIHHPWIRRPFFPFHSPSRLFDQFFGEHLLESDLFPTSTSLSPFYLRPPSFLRAPSWFDTGLSEMRLEKDRFSVNLDVKHFSPEELKVKVLGDVIEVHGKHEERQDEHGFISREFHRKYRIPADVDPLTITSSLSSDGVLTVNGPRKQVSGPERTIPITREEKPAVTAAPKK
notes: αB-crystallin, human; The reverse primer carries no stop codon; Large oligomer (molar mass about 4.8e5 g/mol by light scattering); also called αBWt; Wt αB-crystallin; source: E. coli BL21(DE3), purified (gel filtration, ion-exchange chromatography)
B3: αB-crystallin R12A mutant (natural protein, human, UniProt P02511 1-175, looked up)
chain: B2 chain with R12A
notes: αB-crystallin, human, R12A made by site-directed mutagenesis on the Wt cDNA in pET23a; Same construct as m3 with R12A; also called αB_(R12A); source: E. coli BL21(DE3), purified (gel filtration, ion-exchange chromatography)

Molecular target: the molecule itself
Assay: multi-angle light scattering; molar mass and hydrodynamic radius of wild-type and R12A proteins, ASTRA 5.3.4; conditions as in refs 32, 58

Protein	binding result
B1	binds
B2	binds
B3	binds
